Laboratory results published in the supplement of paper PMC10065799, “High-throughput profiling of sequence recognition by tyrosine kinases and SH2 domains using bacterial peptide display” (eLife, 2023).

What was measured:
Hck = Hck (UniProt P08631); assay: phosphorylation enrichment, bacterial display (enrichment ratio); higher = better substrate or ligand; peptides without Tyr show the background
Fyn = Fyn (UniProt P06241); assay: as above
c-Abl (mouse) = assay: as above
Fer (mouse) = assay: as above
FGFR1 = FGFR1 (UniProt P11362); assay: as above
FGFR1, sequence (P11362 whole entry, looked up): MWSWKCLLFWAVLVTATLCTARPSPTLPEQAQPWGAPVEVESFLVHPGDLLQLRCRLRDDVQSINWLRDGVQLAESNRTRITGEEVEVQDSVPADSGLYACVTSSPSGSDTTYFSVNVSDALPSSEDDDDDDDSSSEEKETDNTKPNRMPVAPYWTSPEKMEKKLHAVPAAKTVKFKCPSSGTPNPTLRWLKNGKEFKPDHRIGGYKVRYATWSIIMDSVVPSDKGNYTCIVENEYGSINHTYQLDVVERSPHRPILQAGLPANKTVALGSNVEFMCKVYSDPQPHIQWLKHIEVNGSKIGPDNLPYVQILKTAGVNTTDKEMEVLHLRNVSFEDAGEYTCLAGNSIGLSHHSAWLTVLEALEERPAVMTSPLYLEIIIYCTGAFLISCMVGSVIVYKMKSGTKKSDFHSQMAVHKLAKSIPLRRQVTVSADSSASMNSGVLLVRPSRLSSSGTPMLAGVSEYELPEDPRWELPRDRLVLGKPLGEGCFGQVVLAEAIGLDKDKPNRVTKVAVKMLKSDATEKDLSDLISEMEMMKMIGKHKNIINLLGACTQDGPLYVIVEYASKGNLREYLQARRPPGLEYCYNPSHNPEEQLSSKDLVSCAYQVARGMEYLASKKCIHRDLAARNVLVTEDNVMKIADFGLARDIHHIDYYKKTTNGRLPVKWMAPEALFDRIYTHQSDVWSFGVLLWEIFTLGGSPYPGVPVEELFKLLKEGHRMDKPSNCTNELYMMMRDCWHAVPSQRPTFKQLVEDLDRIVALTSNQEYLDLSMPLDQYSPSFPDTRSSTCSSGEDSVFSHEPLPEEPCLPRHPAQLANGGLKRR

Jak2 = Jak2 (UniProt O60674); assay: as above
Jak2, sequence (O60674 whole entry, looked up): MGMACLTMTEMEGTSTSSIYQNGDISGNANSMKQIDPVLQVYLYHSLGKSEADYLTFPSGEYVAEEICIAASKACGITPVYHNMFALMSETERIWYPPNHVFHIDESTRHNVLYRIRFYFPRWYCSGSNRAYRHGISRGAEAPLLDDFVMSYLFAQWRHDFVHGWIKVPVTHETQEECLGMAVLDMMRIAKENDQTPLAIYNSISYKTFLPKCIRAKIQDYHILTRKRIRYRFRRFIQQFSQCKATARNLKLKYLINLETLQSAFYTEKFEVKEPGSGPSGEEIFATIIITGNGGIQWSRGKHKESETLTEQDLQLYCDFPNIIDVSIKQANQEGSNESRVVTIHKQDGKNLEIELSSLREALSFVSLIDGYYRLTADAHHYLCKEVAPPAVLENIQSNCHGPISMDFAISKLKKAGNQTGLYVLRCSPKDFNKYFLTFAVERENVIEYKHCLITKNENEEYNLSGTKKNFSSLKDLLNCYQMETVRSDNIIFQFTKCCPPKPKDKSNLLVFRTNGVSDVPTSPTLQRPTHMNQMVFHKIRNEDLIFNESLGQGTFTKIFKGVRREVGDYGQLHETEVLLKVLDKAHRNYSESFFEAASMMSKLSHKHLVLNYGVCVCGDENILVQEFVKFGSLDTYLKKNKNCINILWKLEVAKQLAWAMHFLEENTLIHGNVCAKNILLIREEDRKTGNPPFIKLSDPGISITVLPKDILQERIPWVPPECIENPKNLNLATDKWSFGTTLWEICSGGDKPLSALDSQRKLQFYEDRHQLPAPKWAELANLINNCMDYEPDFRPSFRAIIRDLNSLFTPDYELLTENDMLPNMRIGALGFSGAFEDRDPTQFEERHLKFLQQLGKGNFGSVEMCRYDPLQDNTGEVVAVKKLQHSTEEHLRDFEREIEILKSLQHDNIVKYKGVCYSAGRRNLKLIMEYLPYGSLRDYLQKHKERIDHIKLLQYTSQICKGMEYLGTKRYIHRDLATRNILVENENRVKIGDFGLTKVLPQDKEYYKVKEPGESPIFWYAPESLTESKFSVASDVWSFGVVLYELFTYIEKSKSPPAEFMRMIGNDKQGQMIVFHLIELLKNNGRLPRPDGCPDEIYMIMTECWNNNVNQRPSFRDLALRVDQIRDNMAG

c-Src = assay: as above
FGFR3 = FGFR3 (UniProt P22607); assay: as above
Fes = Fes (UniProt P07332); assay: as above
Fes, sequence (P07332 whole entry, looked up): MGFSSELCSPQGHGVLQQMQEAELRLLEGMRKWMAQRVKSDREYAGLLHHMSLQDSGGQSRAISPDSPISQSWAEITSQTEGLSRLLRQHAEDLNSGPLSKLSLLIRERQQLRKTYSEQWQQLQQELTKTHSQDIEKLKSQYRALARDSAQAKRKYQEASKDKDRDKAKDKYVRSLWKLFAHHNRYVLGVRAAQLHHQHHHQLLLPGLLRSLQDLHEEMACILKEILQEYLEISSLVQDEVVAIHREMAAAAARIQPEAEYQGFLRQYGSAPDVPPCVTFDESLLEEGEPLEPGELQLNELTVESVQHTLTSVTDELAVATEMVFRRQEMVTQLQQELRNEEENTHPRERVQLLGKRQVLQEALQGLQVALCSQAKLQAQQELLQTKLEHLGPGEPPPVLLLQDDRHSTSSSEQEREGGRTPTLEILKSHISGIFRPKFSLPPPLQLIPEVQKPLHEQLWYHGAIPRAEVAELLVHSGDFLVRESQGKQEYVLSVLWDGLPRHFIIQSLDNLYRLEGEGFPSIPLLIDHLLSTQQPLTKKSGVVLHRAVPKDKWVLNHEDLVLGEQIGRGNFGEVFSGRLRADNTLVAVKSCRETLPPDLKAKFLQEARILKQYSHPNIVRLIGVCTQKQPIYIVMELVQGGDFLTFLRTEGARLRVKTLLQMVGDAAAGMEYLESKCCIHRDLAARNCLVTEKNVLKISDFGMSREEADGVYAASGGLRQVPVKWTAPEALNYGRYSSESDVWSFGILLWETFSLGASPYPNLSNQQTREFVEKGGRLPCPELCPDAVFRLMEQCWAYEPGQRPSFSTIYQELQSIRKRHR

AncSZ = assay: as above
EPHB1 = EPHB1 (UniProt P54762); assay: as above
EPHB1, sequence (P54762 whole entry, looked up): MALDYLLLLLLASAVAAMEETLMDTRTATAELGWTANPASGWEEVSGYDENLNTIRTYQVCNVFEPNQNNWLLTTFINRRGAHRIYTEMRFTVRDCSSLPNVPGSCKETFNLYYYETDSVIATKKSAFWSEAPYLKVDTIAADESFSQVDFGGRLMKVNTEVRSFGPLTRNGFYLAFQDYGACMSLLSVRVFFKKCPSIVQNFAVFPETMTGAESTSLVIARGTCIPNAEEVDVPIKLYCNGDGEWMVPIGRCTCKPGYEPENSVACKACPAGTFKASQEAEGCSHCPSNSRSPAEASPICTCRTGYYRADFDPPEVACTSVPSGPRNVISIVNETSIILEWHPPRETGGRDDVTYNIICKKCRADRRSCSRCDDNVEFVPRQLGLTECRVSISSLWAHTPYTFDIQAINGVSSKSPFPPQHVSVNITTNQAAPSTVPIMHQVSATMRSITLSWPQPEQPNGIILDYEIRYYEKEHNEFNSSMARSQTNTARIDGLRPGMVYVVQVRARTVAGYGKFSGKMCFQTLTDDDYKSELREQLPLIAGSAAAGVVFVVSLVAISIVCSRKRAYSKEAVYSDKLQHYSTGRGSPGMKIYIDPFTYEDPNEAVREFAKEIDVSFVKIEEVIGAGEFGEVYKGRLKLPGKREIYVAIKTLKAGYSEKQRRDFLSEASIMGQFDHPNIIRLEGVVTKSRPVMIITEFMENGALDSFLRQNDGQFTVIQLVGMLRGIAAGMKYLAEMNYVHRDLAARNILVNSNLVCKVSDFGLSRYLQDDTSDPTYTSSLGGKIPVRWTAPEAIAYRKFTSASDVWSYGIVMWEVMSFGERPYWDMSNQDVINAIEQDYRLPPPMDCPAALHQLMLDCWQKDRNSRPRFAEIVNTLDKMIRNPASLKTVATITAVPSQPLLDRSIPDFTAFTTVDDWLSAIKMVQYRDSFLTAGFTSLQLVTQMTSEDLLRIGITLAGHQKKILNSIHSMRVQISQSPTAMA

MERTK = MERTK (UniProt Q12866); assay: as above
EPHB2 = EPHB2 (UniProt P29323); assay: as above
SHP2-C SH2 = assay: SH2 binding enrichment of the phosphorylated peptide, bacterial display (enrichment ratio); higher = better substrate or ligand; peptides without Tyr show the background
c-Src SH2 = assay: as above
Grb2 SH2 = Grb2 SH2 (UniProt P62993); assay: as above
Grb2 SH2, sequence (P62993 whole entry, looked up, the tested form may be a part): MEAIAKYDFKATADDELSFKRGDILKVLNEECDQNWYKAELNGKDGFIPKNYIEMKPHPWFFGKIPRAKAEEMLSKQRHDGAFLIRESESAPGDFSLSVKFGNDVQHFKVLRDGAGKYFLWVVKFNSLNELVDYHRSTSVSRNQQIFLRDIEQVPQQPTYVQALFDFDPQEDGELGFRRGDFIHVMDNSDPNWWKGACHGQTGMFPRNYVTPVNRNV
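Wherever SH2 binding enrichment of the phosphorylated peptide, bacterial display is given: peptide library displayed on the E. coli surface as eCPX fusions, selected cells deep-sequenced, score is each peptide's frequency after selection divided by its frequency in the input.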
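Wherever phosphorylation enrichment, bacterial display is given: 11-residue human phosphosite peptides and single-mutation variants displayed on the E. coli surface, counted by deep sequencing, each peptide's frequency after selection divided by its frequency in the unselected input library; frequency after pTyr selection over input frequency; kinase dosed for 20-30% of maximal phosphorylation in three min.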

Fyn, sequence (P06241 whole entry, looked up): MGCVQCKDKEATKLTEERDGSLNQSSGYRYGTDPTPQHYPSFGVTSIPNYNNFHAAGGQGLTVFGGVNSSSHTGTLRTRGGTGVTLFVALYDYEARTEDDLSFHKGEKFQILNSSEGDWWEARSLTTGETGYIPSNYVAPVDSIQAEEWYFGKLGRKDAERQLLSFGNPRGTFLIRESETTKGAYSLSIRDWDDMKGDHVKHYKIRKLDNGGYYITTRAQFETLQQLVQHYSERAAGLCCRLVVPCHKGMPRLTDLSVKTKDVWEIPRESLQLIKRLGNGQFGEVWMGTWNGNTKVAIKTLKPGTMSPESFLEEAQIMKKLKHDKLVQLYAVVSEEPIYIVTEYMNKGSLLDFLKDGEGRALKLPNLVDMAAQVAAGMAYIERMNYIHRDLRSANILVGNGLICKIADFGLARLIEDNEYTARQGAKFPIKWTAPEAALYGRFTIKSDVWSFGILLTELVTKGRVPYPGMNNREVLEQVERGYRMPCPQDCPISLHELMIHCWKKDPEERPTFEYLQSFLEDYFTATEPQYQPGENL
Hck, sequence (P08631 whole entry, looked up): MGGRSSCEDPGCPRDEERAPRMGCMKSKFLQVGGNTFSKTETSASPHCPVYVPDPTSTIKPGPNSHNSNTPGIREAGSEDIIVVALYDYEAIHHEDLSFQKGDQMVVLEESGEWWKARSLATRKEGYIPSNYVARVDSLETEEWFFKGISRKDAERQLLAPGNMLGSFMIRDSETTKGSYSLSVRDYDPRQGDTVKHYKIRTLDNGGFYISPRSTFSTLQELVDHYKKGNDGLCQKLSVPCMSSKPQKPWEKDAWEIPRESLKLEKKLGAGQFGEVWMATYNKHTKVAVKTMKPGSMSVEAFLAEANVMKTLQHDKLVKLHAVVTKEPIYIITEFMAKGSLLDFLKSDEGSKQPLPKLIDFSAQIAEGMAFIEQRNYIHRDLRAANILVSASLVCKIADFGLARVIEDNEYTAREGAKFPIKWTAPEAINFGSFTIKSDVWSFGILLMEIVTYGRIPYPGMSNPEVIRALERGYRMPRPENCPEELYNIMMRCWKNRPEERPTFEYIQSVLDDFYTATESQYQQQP

| Sequence | phosphorylation enrichment (Hck) | phosphorylation enrichment (Fyn) | phosphorylation enrichment (c-Abl (mouse)) | phosphorylation enrichment (Fer (mouse)) | phosphorylation enrichment (FGFR1) | phosphorylation enrichment (Jak2) | phosphorylation enrichment (c-Src) | phosphorylation enrichment (FGFR3) | phosphorylation enrichment (Fes) | phosphorylation enrichment (AncSZ) | phosphorylation enrichment (EPHB1) | phosphorylation enrichment (MERTK) | phosphorylation enrichment (EPHB2) | SH2 binding enrichment (SHP2-C SH2) | SH2 binding enrichment (c-Src SH2) | SH2 binding enrichment (Grb2 SH2) |
| --- | --- | --- | --- | --- | --- | --- | --- | --- | --- | --- | --- | --- | --- | --- | --- | --- |
| SAVTGYRVDVI [FN1_Y937] | 0.374 | 0.425 | 0.432 | 0.335 | 0.398 | 0.616 | 0.353 | 0.534 | 0.566 | 0.546 | 0.368 | 0.358 | 0.377 | 0.514 | 0.452 | 0.84 |
| SDLTDYLMKIL [ACTA1_Y190_R185S] | 0.571 | 0.535 | 0.789 | 0.582 | 0.532 | 1.1 | 0.507 | 0.732 | 1.22 | 1.14 | 0.578 | 0.445 | 0.648 | 0.903 | 0.608 | 1.16 |
| SEELHYFVQNH [UQCRC2_Y207] | 0.524 | 0.523 | 1.07 | 0.562 | 1.12 | 1.08 | 0.685 | 1.39 | 1.16 | 1.45 | 0.647 | 0.841 | 0.661 | 0.819 | 0.587 | 0.806 |
| SELVRYDARVH [MET_Y971] | 0.581 | 0.456 | 0.523 | 0.442 | 0.479 | 0.687 | 0.433 | 0.627 | 0.739 | 0.595 | 0.388 | 0.443 | 0.494 | 0.737 | 0.486 | 0.862 |
| SEVVPYEPPEV [TP53_Y220_V216E] | 0.582 | 0.583 | 0.784 | 0.585 | 0.601 | 1.16 | 0.529 | 0.81 | 1.33 | 1.28 | 0.604 | 0.473 | 0.621 | 1.02 | 0.563 | 0.902 |
| SFCFRYRCAAR [SUMF1_Y344_YF] | 0.469 | 0.49 | 0.763 | 0.472 | 0.47 | 0.643 | 0.618 | 0.54 | 0.634 | 0.772 | 0.466 | 0.614 | 0.571 | 0.483 | 0.4 | 0.669 |
| SFMVRYNQPRV [GRIN2D_Y736_YF] | 0.505 | 0.446 | 0.582 | 0.423 | 0.473 | 0.685 | 0.398 | 0.57 | 0.954 | 0.832 | 0.557 | 0.389 | 0.698 | 0.959 | 0.894 | 1.1 |
| SFPREYGSQEG [RBM10_Y48_YF] | 0.565 | 0.506 | 0.461 | 0.387 | 0.491 | 0.532 | 0.475 | 0.567 | 0.755 | 0.715 | 0.392 | 0.48 | 0.447 | 0.681 | 0.467 | 0.9 |
| SFPSYYTSHVQ [NEFL_Y443] | 1.1 | 0.59 | 1.85 | 0.759 | 1.86 | 4.39 | 0.737 | 1.76 | 0.914 | 0.88 | 1.88 | 5.38 | 1.1 | 1.2 | 0.877 | 1.18 |
| SFSGEYGSGGG [ZG16_Y30_G32S_YF] | 0.496 | 0.43 | 0.564 | 0.46 | 0.423 | 0.563 | 0.512 | 0.432 | 0.658 | 0.556 | 0.34 | 0.327 | 0.454 | 0.728 | 0.409 | 0.885 |
| SGEKPYKCSVC [ZNF543_Y283_E287V] | 0.255 | 0.373 | 0.493 | 0.398 | 0.342 | 0.434 | 0.365 | 0.355 | 0.524 | 0.495 | 0.261 | 0.416 | 0.298 | 0.712 | 0.532 | 1.02 |
| SGGSSYGSGGC [KRT1_Y532_G537C] | 0.493 | 0.465 | 0.697 | 0.53 | 0.589 | 0.677 | 0.502 | 0.667 | 0.932 | 0.681 | 0.558 | 0.431 | 0.596 | 0.536 | 0.538 | 0.756 |
| SGSIHYSCVPR [GLB1_Y57_R59C] | 0.54 | 0.474 | 0.898 | 0.578 | 0.536 | 1.06 | 0.526 | 0.771 | 1.15 | 1.05 | 0.591 | 0.517 | 0.585 | 0.747 | 0.569 | 0.734 |
| SGVVPYEPPEV [TP53_Y220_V216G] | 0.524 | 0.667 | 0.659 | 0.572 | 0.588 | 0.986 | 0.481 | 0.781 | 1.21 | 1.12 | 0.581 | 0.443 | 0.738 | 0.77 | 0.49 | 0.814 |
| SHGKRYRVPSD [HHIPL2_Y395] | 0.274 | 0.395 | 0.337 | 0.285 | 0.301 | 0.314 | 0.352 | 0.366 | 0.413 | 0.379 | 0.254 | 0.374 | 0.274 | 0.592 | 0.557 | 0.887 |
| SHNELYYEAAE [VANGL1_Y344_E347A] | 1.1 | 0.986 | 0.801 | 3.52 | 2.63 | 1.18 | 1.17 | 2.54 | 1.12 | 1.6 | 1 | 1.9 | 0.737 | 0.922 | 1.4 | 0.726 |
| SHTPSYCDEWL [RITA1_Y109_S113W] | 0.505 | 0.473 | 0.985 | 0.57 | 0.529 | 0.97 | 0.494 | 0.779 | 1.12 | 1.17 | 0.645 | 0.553 | 0.558 | 0.748 | 0.97 | 1.19 |

| Sequence | phosphorylation enrichment (Hck) | phosphorylation enrichment (Fyn) | phosphorylation enrichment (c-Abl (mouse)) | phosphorylation enrichment (Fer (mouse)) | phosphorylation enrichment (FGFR1) | phosphorylation enrichment (Jak2) | phosphorylation enrichment (c-Src) | phosphorylation enrichment (FGFR3) | phosphorylation enrichment (Fes) | phosphorylation enrichment (AncSZ) | phosphorylation enrichment (EPHB1) | phosphorylation enrichment (MERTK) | phosphorylation enrichment (EPHB2) | SH2 binding enrichment (SHP2-C SH2) | SH2 binding enrichment (c-Src SH2) | SH2 binding enrichment (Grb2 SH2) |
| --- | --- | --- | --- | --- | --- | --- | --- | --- | --- | --- | --- | --- | --- | --- | --- | --- |
| SIKDKYLTALF [KCNH2_Y611_V612L_YF] | 0.414 | 0.448 | 0.468 | 0.484 | 0.481 | 0.665 | 0.394 | 0.572 | 0.784 | 0.724 | 0.435 | 0.408 | 0.449 | 0.778 | 0.674 | 1.07 |
| SIVEDYRPPFF [ACVRL1_Y421_G416S_YF] | 0.38 | 0.378 | 0.821 | 0.485 | 0.435 | 0.85 | 0.45 | 0.646 | 1.01 | 1.01 | 0.578 | 0.473 | 0.46 | 0.73 | 0.444 | 0.83 |
| SKKVRYVVSKA [BARD1_Y156] | 0.372 | 0.366 | 0.538 | 0.36 | 0.292 | 0.482 | 0.341 | 0.402 | 0.569 | 0.474 | 0.309 | 0.312 | 0.334 | 1.17 | 1.32 | 1.38 |
| SLDHPFEKPRK [INAVA_Y333_Y333F] | 0.376 | 0.721 | 0.61 | 0.3 | 0.388 | 0.663 | 0.436 | 0.524 | 0.749 | 0.589 | 0.317 | 0.365 | 0.433 | 0.813 | 0.508 | 1.01 |
| SLFQFYFQQKG [CHKB_Y381_R377L] | 0.488 | 0.397 | 0.932 | 0.612 | 0.521 | 1.43 | 0.425 | 0.833 | 1.42 | 1.35 | 0.657 | 0.403 | 0.568 | 1.37 | 1.02 | 1.58 |
| SLIDMYSKVLD [OPA1_Y268_E270K] | 0.497 | 0.421 | 0.482 | 0.501 | 0.479 | 0.814 | 0.478 | 0.637 | 1.02 | 0.953 | 0.462 | 0.481 | 0.57 | 0.737 | 1.6 | 0.777 |
| SLQFEYVHFGG [CDC14A_Y591_S589F_YF] | 0.557 | 0.548 | 0.781 | 0.367 | 1.47 | 1.12 | 0.604 | 1.33 | 1.29 | 1.25 | 0.612 | 0.426 | 0.682 | 0.925 | 0.643 | 1.08 |
| SLTGAYASGIP [POM121C_Y378_T379A] | 0.575 | 0.478 | 0.647 | 0.453 | 0.519 | 0.904 | 0.482 | 0.602 | 0.906 | 0.627 | 0.518 | 0.436 | 0.43 | 0.602 | 0.533 | 0.732 |
| SLTRLYVGENA [NLRP3_Y861] | 0.554 | 0.424 | 0.496 | 0.444 | 0.485 | 0.494 | 0.357 | 0.517 | 0.703 | 0.725 | 0.357 | 0.34 | 0.521 | 0.452 | 0.438 | 0.806 |
| SLVGCYNLTFM [HS6ST3_Y323] | 0.745 | 0.694 | 1.12 | 1.29 | 0.589 | 1.39 | 0.794 | 0.95 | 1.56 | 1.42 | 0.694 | 0.498 | 0.868 | 0.553 | 0.432 | 0.599 |
| SMGHRYIEVFR [HNRNPF_Y82_K87R] | 0.453 | 0.335 | 0.514 | 0.483 | 0.53 | 0.688 | 0.367 | 0.506 | 0.691 | 0.622 | 0.451 | 0.474 | 0.576 | 1.33 | 3.04 | 0.936 |
| SNKELYEKYMI | 0.871 | 0.593 | 0.487 | 7.5 | 0.482 | 0.616 | 0.96 | 0.579 | 0.802 | 0.896 | 0.652 | 0.597 | 0.62 | 0.506 | 0.655 | 0.705 |
| SPYMLYQYLKQ [RPAP3_Y567_D564Y] | 7.66 | 4.34 | 3.63 | 10.6 | 5.62 | 2.23 | 5.57 | 4.11 | 1.24 | 1.39 | 14.1 | 9.38 | 11.4 | 3.05 | 1.11 | 1.52 |
| SQQTFYPVSNM [ABCD1_Y181_R182P_YF] | 0.407 | 0.419 | 0.57 | 0.318 | 0.507 | 0.598 | 0.398 | 0.513 | 0.654 | 0.706 | 0.387 | 0.374 | 0.49 | 0.644 | 0.466 | 0.881 |
| SREDIYKRNTE [PDE4DIP_Y45_I49T] | 0.429 | 0.409 | 0.898 | 0.463 | 0.411 | 0.81 | 0.451 | 0.696 | 1.05 | 0.8 | 0.62 | 0.374 | 0.416 | 0.691 | 0.344 | 0.685 |
| SRGHQYQELPR [KCNH2_Y1009_R1007H] | 1.06 | 0.487 | 0.589 | 0.413 | 0.609 | 0.721 | 0.35 | 0.464 | 0.672 | 0.527 | 0.466 | 0.576 | 0.602 | 0.807 | 5.11 | 1.04 |
